From patent US20130231286A1, “Use of Prolactin Receptor Antagonist and Chemotherapeutic Drug for Treating Ovarian Cancer” (ONCOLIX, INC., priority 2010, published 2013)

How the values were obtained:
[1] = system: human ovarian cancer cells SKOV3; test: Human ovarian cancer cells SKOV3 injected intraperitoneally in SCID mice: tumors and secondary nodules; type: in vivo, mouse; conditions: 38 days, G129R 100 ug daily, DCT 25 ug weekly
Procedure: SCID mice (laboratory experimental animals that lack both T and B lymphocytes) were injected with one million human ovarian cancer cells SKOV3 intraperitoneally on day 1.
All mice were treated for 38 days and then sacrificed, and tumors from every experimental group were weighted.
The effect of G129R and the G129R+DCT combination on the ability of human ovarian cancer cells to metastasize was also studied.

[2] = system: mouse ovarian cancer cells ID8; test: Mouse ovarian cancer cells ID8 injected intraperitoneally in SCID mice: tumors and secondary nodules; type: in vivo; conditions: 52 days, G129R 100 ug daily, DCT 25 ug weekly
Procedure: SCID mice were injected with one million mouse ovarian cancer cells ID8 intraperitoneally on day 1.
All mice were treated for 52 days and then sacrificed, and tumors from every experimental group were weighted.
The effect of G129R and the G129R+DCT combination on the ability of mouse ovarian cancer cells to metastasize was also studied.

[3] = system: Human triple-negative breast cancer cells MDA-MB-231; test: ALDH1 activity (ALDEFLUOR fluorescent assay) in triple-negative breast cancer cells; type: cell-based; conditions: MDA-MB-231, G129R 10 ug/ml, three days, vs control
Procedure: Human triple-negative breast cancer cells MDA-MB-231 and control breast cancer cells T-47D were plated in 6 well plates at 1×10^5 cells/ml, and allowed to adhere for 24 hours in growth media followed by 2 hours of serum free media depletion. The cells were then cultured either without (control) or with prolactin (100 ng/ml) or G129R (10 ug/ml) for three days. The cells were then collected and the ALDH-1 activity (this enzyme is a marker for cancer stem cells. See Ginestier et al., Cell Stem Cell 2007 1(5): 555-567) was measured by ALDEFLUOR^R fluorescent assay (StemCell Technologies).

[4] = system: mammary HER2+ adenocarcinomas of MMTV/neu transgenic mice; test: ALDH1 activity in tumor cells isolated from treated MMTV/neu transgenic mice; type: in vivo, mouse
Procedure: MMTV/neu transgenic mice carry an activated c-neu oncogene driven by a mouse mammary tumor virus (MMTV) promoter and develop mammary HER2^+ adenocarcinomas (Muller et al. 1988. Cell. 54(1):105-15). MMTV/neu transgenic mice bearing mammary tumors were treated with PBS (n=4) or G129R for 5 (n=2) or 10 (n=3) days (10 mg/kg, i.p.). The tumors were isolated at the end of treatment, digested to a single cell suspension, and ALDH1 activity levels were compared.

[5] = system: Primary mammary tumor cells isolated from MMTV/neu transgenic mouse; test: ALDH1 activity in cultured primary MMTV/neu mammary tumor cells, time course; type: cell-based; conditions: G129R 10 ug/ml
Procedure: Primary mammary tumor cells were isolated from MMTV/neu transgenic mouse and cultured in the presence of G129R (10 ug/ml) or PRL (100 ng/ml) for 24, 48, 72, or 96 hrs. Specifically, tumor removed from an MMTV-neu mouse was digested to a single cell suspension and plated in 12-well plates at 1×10^5 cells/ml. Cells were allowed to adhere for 24 hours in growth media followed by 2 hours of serum-free media depletion. The cells were then either treated without (control) or with prolactin (100 ng/ml) or G129R (10 ug/ml). Cells were collected following 24, 48, 72, or 96 hours of treatment and the ALDH-1 activity was measured.

[6] = system: lung metastases of HER2+/neu breast tumors; test: Lung metastases after removal of primary breast tumors in MMTV/neu mice; type: in vivo, mouse; conditions: 200 ug/day i.p. for more than 40 days, vs untreated control, P<0.05
Procedure: Primary breast tumors were removed from MMTV/neu transgenic mice. The mice were then treated either with PBS or G129R (200 ug/day, i.p.) for more than 40 days. When the secondary tumors (recurrence) grew to a certain size, the mice were sacrificed and the lungs were excised and fixed in Bouin's fixative to observe metastasis.

[7] = system: HER2+/neu tumors implanted into female transgenic mice; test: Growth of implanted tumors in transgenic mice; type: in vivo, mouse; conditions: 10 mg/kg i.p. daily, 50 days; ±SEM
Procedure: In two separate experiments, tumors were isolated from female transgenic mice, sectioned into equivalent sized pieces and implanted into age-matched recipient female transgenic mice. Ten days after implantation, mice were randomized into either control (n=3-4) or G129R treated groups (n=4, 10 mg/kg, i.p. daily). The mice were then treated on a daily basis for 50 days and tumor volumes for the control and treated groups were monitored.

[8] = system: phosphorylated Neu protein; test: Phosphorylation of Neu protein in primary and secondary tumors (western blotting); type: in vivo, mouse; conditions: 200 ug per day for 5 days, vs PBS
Procedure: MMTV/neu mice (bearing primary and secondary tumors) were treated either with PBS (control) or with 200 ug of G129R per day for 5 days. Primary and secondary tumors were removed 24 hours following the 5th treatment and processed for western blotting.

[9] = system: phosphorylated HER2/neu protein; test: Dose-dependent response of phosphorylated HER2/neu in tumors in vivo (western blotting); design: species or system mouse; conditions: i.p. for ten days; 2.5, 5, 10, 20 mg/kg/day tested
Procedure: To determine a minimal dosage of G129R required for decreasing phosphorylation of HER^+/neu in vivo, a biopsy was removed from tumors of MMTV/neu transgenic mice and was used as a self-control baseline. The mice were then treated i.p. for ten days with either PBS or G129R at the following concentrations: 50, 100, 200 or 400 ug daily (2.5 mg/kg/day, 5 mg/kg/day; 10 mg/kg/day; or 20 mg/kg/day of G129R). The tumors were then harvested and processed for western blotting. The western blots were then probed with an antibody that detects phosphorylated HER2/neu protein and an antibody against beta-tubulin as a control for gel loading and western blotting transfer.

[10] = system: phosphorylated HER2/neu protein; test: Time-dependent response of phosphorylated HER2/neu in tumors in vivo (western blot); design: species or system mouse; conditions: 10 mg/kg/day i.p.
Procedure: To determine an optimal length of treatment with G129R, MMTV tumor-bearing mice were treated with 200 ug G129R for either five or ten days. Tumors were removed 24 hours after the last treatment and processed for western blot analysis. […] As also can be seen in FIG. 8, of 10 mice receiving a 10 day treatment of G129R (10 mg/kg/day, i.p.), tumors from 3 mice were highly responsive and virtually no phosphorylated HER2/neu was detected in these tumors, 5 mice were moderately responsive and 2 mice were nonresponsive.

CC(=O)O[C@@]12CO[C@@H]1C[C@H](O)[C@@]1(C)C(=O)[C@H](O)C3=C(C)[C@@H](OC(=O)[C@H](O)[C@@H](NC(=O)OC(C)(C)C)c4ccccc4)C[C@@](O)([C@@H](OC(=O)c4ccccc4)[C@H]21)C3(C)C [docetaxel, reference compound]
number of secondary nodules (metastases) versus control [1]: suppressed the number of secondary nodules
size (weight) of tumors versus control [1]: suppressed the growth of tumors
number of secondary nodules (metastases) versus control [2]: suppressed the number of secondary nodules
size (weight) of tumors versus control [2]: suppressed the tumor growth

B1: G129R: prolactin receptor antagonist: human prolactin in which glycine at position 129 is substituted with arginine (protein)
chain: LPICPGGAARCQVTLRDLFDRAVVLSHYIHNLSSEMFSEFDKRYTHGRGFITKAINSCHTSSLATPEDKEQAQQMNQKDFLSLIVSILRSWNEPLYHLVTEVRGMQEAPEAILSKAVEIEEQTKRLLERMELIVSQVHPETKENEIYPVWSGLPSLQMADEESRLSAYYNLLHCLRRDSHKIDNYLKLLKCRIIHNNNC
ALDH1 activity in triple-negative breast cancer cells [3]: significantly reduced
ALDH1 activity in cancer cells isolated from treated animals ([4]; 10 mg/kg i.p. for 5 or 10 days, vs PBS): significantly reduced
ALDH1 activity in cancer cells after ten days of treatment ([4]; 10 mg/kg i.p., ten days): Practically no ALDH1 activity was detected
reduction of ALDH1 activity versus control ([5]; 96 hrs): 92.3%
ALDH1 activity over the time course ([5]; 24, 48, 72, 96 hrs): steady decrease
percentage of animals with lung metastases [6]: significantly reduced
final tumor volume smaller than control (first value of two experiments) [7]: 67.1%
final tumor volume smaller than control (second value of two experiments) [7]: 71.5%
final tumor weight reduced versus control (first value of two experiments) [7]: 61.3%
final tumor weight reduced versus control (second value of two experiments) [7]: 62.5%
phosphorylated Neu protein in primary tumors [8]: significant decrease
phosphorylation of neu in secondary tumors ([8]; some phosphorylated neu still detected): decrease
lowest dosage with inhibitory effect on phosphorylation of HER+/neu [9]: 5 mg/kg/day
mice highly responsive (virtually no phosphorylated HER2/neu detected) ([10]; of 10 mice, 10 day treatment): 3 mice
mice moderately responsive ([10]; of 10 mice, 10 day treatment): 5 mice
nonresponsive mice ([10]; of 10 mice, 10 day treatment): 2 mice
mice moderately responsive (noticeable reduction in phosphorylated HER2/neu) ([10]; of 14 mice, 5 day treatment): 4 mice
mice whose tumors showed drastic reduction in phosphorylated HER2/neu ([10]; of 14 mice, 5 day treatment): 5 mice
nonresponsive mice ([10]; of 14 mice, 5 day treatment): 5 mice
number of secondary nodules (metastases) versus control [1]: decreased the number of secondary nodules
size (weight) of tumors versus control [1]: decreased the size of tumors
number of secondary nodules (metastases) versus control [2]: decreased the number of secondary nodules
size (weight) of tumors versus control [2]: decreased the size of tumors
